# Source: paper PMC5952258 (ACS Infectious Diseases, 2018)
# Biological target: the molecule itself
# Experiment: crystal structure; sitting drop vapor diffusion at 18 °C; 25% (w/v) PEG 3350, 0.1 M Bis-Tris pH 5.6, 0.1 M ammonium sulfate; resolved to 2.0 Å
protein,measurement,value
Rv2466c C22S mutant (enzyme) not shown,binding result,binds
